The sequences below were run on K4 kissing-loop RNA reporter (assay: apparent KD of K4 kissing-loop reporter; higher = weaker reporter binding). Settings: Eterna round: R107; input ligand: arginine 13.2 mM.
Procedure: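 RNA-MaP round R107: designed RNA switches with theophylline, tryptophan, arginine or FMN aptamers are transcribed on-chip within common flanks. They are titrated with a labelled K4 kissing-loop RNA reporter in RNA-MaP buffer (100 mM Tris pH 7.5, 80 mM KCl, 4 mM MgCl2), without ligand or with the indicated ligand. Median apparent KD per design.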
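Note: bound reporter read as fluorescence of individual clusters on recovered sequencing chips by microscopy, with normalized cluster intensities fitted with a binding model.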

| Sequence | apparent KD of K4 kissing-loop reporter |
| --- | --- |
| ACAGGAUCGAAAGAUCCUGAGCAGUCUAACCGAGGACCGGUACGGCCGCCACUCGGAGUGAUGUUCCGAGGACUGCAAAAUAAAA [#SwitchBubble 2 #CoaxialStacking] | 305 nM |
| CAUAGGAAACUAUGUAUCUCUCUUACUGAAGGAGCGCGUGAAAACGCAGGUAGGUCGCAGAAUUUAAUAGAGAGUGAUGUUCUCU [Ex Arginine A K4 7] | 202 nM |
| GUAUCGCUAGGAGGAUAUUUCGUUUUUCAUAGCAAUGGCUAUGCGGAGUGAUGUUCCGAUUUACCGAAAGAAGGCCUAGUGAUAC [FMN B 25] | 87.8 nM |
| AAGGUAAGUGCAUACAAAGUGAUGUUUUGUCGAGGACCGGUACGGCCGCCACUCGCCCAGUUAAGUGACCGACGUCAACGAAUAA [theeternabot_exclusion_KL_Trp_A_21] | 552 nM |
| GCCAGUGAUGUUGGCGAACCAACGCAUGCAGAGGAUAUUCGUUCGGGAAGAAGGCUGCAGCGUUCUCUCCCGCAGUGAUGUUGCG [Same State FMN A GF 25] | 141 nM |
| CAAGGGCAAGUCGAUACCAGAGACACAUACCCGCAGUGAUGUUGCAGGAAACAGUUACUUCUCCCUUGGCAGCGAAUGCGACUUC [theeternabot_sameState_KL_Theo_B_45] | 313 nM |
| AGCGAUGUUUUCUCUAAGAGUGAUGUUUUUCGAGGACCGGUACGGCCGCCACUCGAAUAAAGUGUGUGGUAGUGAGCUGUUGACA [#17 K4 Tryptophan A Exclusion] | 606 nM |
| AUAGGAGUGAUGUUCCUUAGUUUCUCCGAUACCAGUAUGGAAACAUACCCUUGGCAGCGGGAAACCGCAGAUUAGGAAACUAGUC [Theophylline A K4 6] | 200 nM |
| ACGUCUCGUUAAAUCGUGGUUUCGAUCGAUACCAGUAGCGAGAGUUACCCUUGGCAGCGAAAUGAGUGAUGUUCAUGAAAGAAGA [KL-XTheoA9] | 109 nM |
| GUAUCGCUAGGAGGAUAUUCCGUUUUUCAUAGCAAUGGCUAUGCGGAGUGAUGUUCCGAUUUACCGGAAGAAGGCCUAGUGAUAC [FMN B 24] | 139 nM |
| GGGCGGCAGACGGCCGCCACUCAUAGCAGCCAGUGAGUGAUGUUCGUGGCGGAGUGAUGUUCCUAGAGGACCGGGUUUGUUGUUC [Same State Tryptophan B GF 19] | 354 nM |
| AAGCAGUCACUCUAAGCCAUCGAAGAUGGUCGAGGACCGGUACGGCCGCCACUCGGAGUGAUGUUCCGAAGACUGCAAAAUAAAA | 393 nM |
| GUUUUAUAGGAGGAUACCAGUACAAAUAAAGUGCAUUAAUAGUAGAGUGAUGUUCUAAAGUACCCUUGGCAGCUUAGUUUAAGUU [#26 K4 Theophylline B Exclusion] | 278 nM |
| ACCCGUAGGAUACGGAGGUGUAAAUGGGUAUAGGAUAUCUAGAAAUAGAGAAGGAUACCAGUGAUGUUGGUUCCGUAUAUCUUAA | 137 nM |
| GGAUAGGACAGAGGAUAUCCUGAGUCUACAAAGUAGGCUCAUAAAGGAUGAAUCCUAGUGAUGUUAGGAGAAGGCUGUCCUAUCG [FmnBX 16 - #SwitchBubble #StaticStem #Palindromic] | 84.6 nM |
| UCAUGAGAGACGGCCGCCACUGAAGCAGCUCUGUAAGAGCUGCAACAGUAGAGUGAUGUUCUGCGCAGGACCGGGUCGUCAUGAA [KL-SSTryp-B9] | 206 nM |
| UAAGUGAUUCACAAGCUAGAGUUACUCGAAGGAGCGACGAAUUCGUCAGGUAGGUCGCGAGUGAUGUUCGCAUGCUCUAGCAAAU [AK1 Exc Arginine A] | 681 nM |
| UUUAAAUAUAGUGAUGUUAUAUAACAAUGACGAGGACCGGUACGGCCGCCACUCGAGAGAGAUAAUGGUCUAUAGAAUCUAUAGC [AstrosSSTryA#4] | 622 nM |
| GCGUCUUGGUCGGCCGCCACUGAGCCUAGUCACACUCUUGAGUGAUGUUGAAGAUGGUGGACUUGCAGGACCGGGACCACGGACG [theeternabot_sameState_KL_Trp_B_41] | 612 nM |
| UUGGGCAACCGAGAUACCAGUCAAAUCGCUCUGGAGUGAUGUUCCGGAACAUGCGGAGAAGACCCUUGGCAGCUCAAGACGGACA [Exclusion Theophylline B GF 1] | 107 nM |
| AGACUACCACACUGUCAAUAGACAGUGUACUAGGAUAUGCUGAUAAGCAGAAGGAGUGAUGUUCCCAGGUAGUCAAUAAAAUAAU [FmnAX 13 U28+C66] | 189 nM |
| AACUAUUAAUGAAUUACAUUUUAUUUUUCUCGAGGACCGGUACGGCCGCCACUCGUACUAUAGUGAUGUUAUAGAUAAGUCCUAA [JR_ExcTryptoA_Sub021] | 184 nM |
| UGUAUGUGAUUUGAUACCAGACCAGGUGGAGGAAUCUGAGUGAUGUUCAGGUAGGUUCUGGUCCCUUGGCAGCAAAUCGCAUACU [KL-SSTheoB19] | 133 nM |
| UGACUGGACUGAAGGAGCGCGCGAGACAAAGUCUCGAACUUCUAGUGAUGUUAGAAAAUAACGCAGGUAGGUCGCAGUCUAGUCU | 137 nM |

Same assay, conditions: Eterna round: R107; input ligand: none

| Sequence | apparent KD of K4 kissing-loop reporter |
| --- | --- |
| GCCGUAGAUGGAAGGAGCGUGCGUGAAGUGAUGUUUCACGAAGAGUUUUCCACCUUAUAUGCACAGGUAGGUCGCCAUCUACGGC | 100 nM |
| UGAUACCAGACGGCCGCCACUCCCGUAAGUCAAAGACUUACGAAGAAGGUUUUUUAGUGAUGUUGGAGGACCGGGUCUGGUAUCU [FiskerMod 19 - Jieux - Exclusion - Tryptophan B] | 210 nM |
| GUAGGCUACCGAGGAUAUAGUCCAACGGAGUGAUGUUCCGUCUUUCUUCAUCAUUAACGUUGUGAUCUAGAAGGCGGUAGCCUAC | 723 nM |
| UGUCAUUGGUCGGCCGCCACUCCAUAAUGAGUGAUGUUCUAAAAGACGGAUCGAAAGAUCUGUCGGAGGACCGGGACCGAUGACU [FiskerMod 5 - Jieux - Same State - Tryptophan B] | 680 nM |
| UGAUACCAGACUGAUACCAGCCAGUGAUGUUGGCUAAGCCGAAGAGGUGUCAUAGACACCGGCCCUUGGCAGCAGUCUGGUAUCU [#07 K4 Theophylline B Exclusion] | 120 nM |
| AUUAAUUUCAGAGGAUAUCGUGAUUUUGUUUAAUUUAUUCAUUUGUGCAGUGAUGUUGCUAAUAUUCGAGAAGGCUGAUUUAUAA [whbob_Ex_FMNB__2th225] | 63.3 nM |
| UGAUAGGACAGAAGGAGCGGUAGUGAUGUUACCAAAAGAAUAAGGUGUCAAAAGACACCCUACCAGGUAGGUCGCUGUCCUAUCU | 189 nM |
| GGAUAGGACAGAGGAUAUCUCUAAAGAGGCAAGAAAACUUGUCUCAGAGAUGACUCAGUGAUGUUGAGAGAAGGCUGUCCUAUCG [FmnBX 7 - #SwitchBubble #StaticStem] | 174 nM |
| ACAGGAUCGAAAGAUCCUGAGCAGUCUAACCGAGGACCGGUACGGCCGCCACUCGGAGUGAUGUUCCGAGGACUGCAAAAUAAAA [#SwitchBubble 2 #CoaxialStacking] | 298 nM |
| CAUAGGAAACUAUGUAUCUCUCUUACUGAAGGAGCGCGUGAAAACGCAGGUAGGUCGCAGAAUUUAAUAGAGAGUGAUGUUCUCU [Ex Arginine A K4 7] | 254 nM |
| GUAUCGCUAGGAGGAUAUUUCGUUUUUCAUAGCAAUGGCUAUGCGGAGUGAUGUUCCGAUUUACCGAAAGAAGGCCUAGUGAUAC [FMN B 25] | 99.2 nM |
| AAGGUAAGUGCAUACAAAGUGAUGUUUUGUCGAGGACCGGUACGGCCGCCACUCGCCCAGUUAAGUGACCGACGUCAACGAAUAA [theeternabot_exclusion_KL_Trp_A_21] | 582 nM |
| GCCAGUGAUGUUGGCGAACCAACGCAUGCAGAGGAUAUUCGUUCGGGAAGAAGGCUGCAGCGUUCUCUCCCGCAGUGAUGUUGCG [Same State FMN A GF 25] | 169 nM |
| CAAGGGCAAGUCGAUACCAGAGACACAUACCCGCAGUGAUGUUGCAGGAAACAGUUACUUCUCCCUUGGCAGCGAAUGCGACUUC [theeternabot_sameState_KL_Theo_B_45] | 344 nM |
| AGCGAUGUUUUCUCUAAGAGUGAUGUUUUUCGAGGACCGGUACGGCCGCCACUCGAAUAAAGUGUGUGGUAGUGAGCUGUUGACA [#17 K4 Tryptophan A Exclusion] | 1110 nM |
| AUAGGAGUGAUGUUCCUUAGUUUCUCCGAUACCAGUAUGGAAACAUACCCUUGGCAGCGGGAAACCGCAGAUUAGGAAACUAGUC [Theophylline A K4 6] | 210 nM |
